Patent US20240124563A1

Legend:
[1] = target: human MSLN protein endogenously expressed on tumor cells (Hela, OVCAR3) (human) (UniProt Q13421); assay: FACS, OVCAR3 cells, antibody 0.032 nM
[2] = target: human MSLN full-length protein, recombinant, on CHO-K1 or HEK293T cells (human) (UniProt Q13421); assay: competitive FACS on CHO-K1-human MSLN-2C8 cells vs Biotin-Tab142; competitor at 0.0128 nM
[3] = target: human MSLN full-length protein, recombinant, on CHO-K1 or HEK293T cells (human) (UniProt Q13421); assay: competitive FACS on CHO-K1-human MSLN-2C8 cells vs Biotin-Tab131; competitor at 200 nM
[4] = target: human MSLN full-length protein, recombinant, on CHO-K1 or HEK293T cells (human) (UniProt Q13421); assay: competitive FACS on CHO-K1-human MSLN-2C8 cells vs Biotin-Tab142; competitor at 0.8 nM
[5] = target: monkey MSLN full-length protein on HEK293T cells (monkey); assay: FACS, HEK293T-monkey-MSLN cells, antibody 0.00128 nM
[6] = target: human MSLN-R3-rFc protein (human) (UniProt Q13421); assay: ELISA, antibody 100 nM
[7] = target: human MSLN full-length protein on transfected cells (CHO-K1-hMSLN clones 2C8, 2D11, 2C5; HEK293T-hMSLN clones B8, 2A4, 2A7) (human) (UniProt Q13421); assay: FACS, CHO-K1-hMSLN-2C8 cells, antibody 100 nM
[8] = target: human MSLN full-length protein, recombinant, on CHO-K1 or HEK293T cells (human) (UniProt Q13421); assay: competitive FACS on CHO-K1-human MSLN-2C8 cells vs Biotin-Tab142; competitor at 0.032 nM

Sequence of human MSLN full-length protein, recombinant, on CHO-K1 or HEK293T cells (human) (Q13421 other isoform, or with tags, fused parts or gaps limits assumed): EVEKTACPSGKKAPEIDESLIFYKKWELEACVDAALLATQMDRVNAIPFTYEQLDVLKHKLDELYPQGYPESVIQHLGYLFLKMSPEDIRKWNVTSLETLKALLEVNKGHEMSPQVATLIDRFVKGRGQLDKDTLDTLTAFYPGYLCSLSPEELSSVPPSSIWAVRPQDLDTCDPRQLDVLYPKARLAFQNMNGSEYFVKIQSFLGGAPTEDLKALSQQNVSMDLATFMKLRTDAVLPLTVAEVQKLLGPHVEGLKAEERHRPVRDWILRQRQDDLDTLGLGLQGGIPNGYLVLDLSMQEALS
Sequence of human MSLN protein endogenously expressed on tumor cells (Hela, OVCAR3) (human) (Q13421 other isoform, or with tags, fused parts or gaps): as the sequence (Q13421 other isoform, or with tags, fused parts or gaps limits assumed) above, with P14R counted along it
Sequence of human MSLN full-length protein on transfected cells (CHO-K1-hMSLN clones 2C8, 2D11, 2C5; HEK293T-hMSLN clones B8, 2A4, 2A7) (human) (Q13421 other isoform, or with tags, fused parts or gaps limits assumed): as the sequence (Q13421 other isoform, or with tags, fused parts or gaps limits assumed) above

FACS signal (MFI) [1]: 75
MFI of Biotin-Tab142 [2]: 24100
MFI of Biotin-Tab131 [3]: 12900
MFI of Biotin-Tab142 [4]: 44300
FACS signal (MFI) [5]: 84
OD450 nm [6]: 0.21
FACS signal (MFI) [7]: 72
MFI of Biotin-Tab142 [8]: 43700
Substance: hIgG1 (antibody)
